Experimental data from patent US20150033370.

Test system: TALEN-AAVS1 (goat AAVS1 TALEN pair; left and right monomers not described separately) (synthetic construct)
Assay: cell_activity
Conditions: cleavage/targeting efficiency in transfected goat fibroblasts; 6 of 8 puromycin-resistant clones correctly targeted with donor; half-sites highlighted only in …

Sequence: TCCGGCTGTCTCCCTACCAGGGACACGGCAGGGCGGTGGTCAGCTCTCCTGGA (double strand) [goat AAVS1 TALEN target]
- activity: 2%
